Data published in PMC12356973.

Target: nsp10 (two [Fe4S4]);nsp16 (SARS-CoV-2;SARS-CoV-2, UniProt P0DTD1;P0DTD1 4254-4392;6799-7096, |)
Experiment: EMSA
Conditions: protein: recombinant;recombinant; copies: 1;1; single strand

Binder: AUUAAAGGUU (ssRNA, 5' m7Gppp cap (Cap-0), Vaccinia capping system) [Cap-0 RNA (7MeGppp RNA)]
- binding result: binds
